Publication PMC3823011

Assays:
[1] = biological target: CmTic110B (Cyanidioschyzon merolae 10D); assay: SEC + other: small-angle X-ray scattering
[2] = biological target: CmTic110C (Cyanidioschyzon merolae 10D); assay: SEC + other: small-angle X-ray scattering

Q: How did the stoichiometry N [1] turn out when CmTic110B (domain or fragment) was run?
A: 2

Q: CmTic110C (domain or fragment) was tested. Which stoichiometry N [2] did it give?
A: 2
